Source: PMC3760305, “Mimicking Protein–Protein Interactions through Peptide–Peptide Interactions: HIV-1 gp120 and CXCR4” (Frontiers in Immunology, 2013)

target: CXCR4 mimetic peptide CX4-M1; assay: SPR; Biacore X100, Biotin CAPture Kit; CX4-M1 (2 μM) bound to streptavidin; gp120 8–0.5 nM; HBS-N (10 mM HEPES, 150 mM NaCl, pH 7.4), 0.05% Tween 20, 2.5 mM MgCl2; no sCD4; settings: not given

Substance	Kd
Gp120_(IIIB) (natural protein)	100 nM
gp120MN (natural protein)	700 nM
gp120_(HxBc2) (from UniProt P04578 33-511) (natural protein)	200 nM

target: CXCR4 mimetic peptide CX4-M1; assay: direct ELISA; settings: parent: 1; read off a plot

Substance	ratio to parent
V3 loop peptide V3_(HxBc2) I309A	0.13
V3 loop peptide V3_(HxBc2) I307A	0.18
V3 loop peptide V3_(HxBc2) F317A	0.16
V3 loop peptide V3_(HxBc2) R315A	0.46
V3 loop peptide V3_(HxBc2) G324A	1.4
V3 loop peptide V3_(HxBc2) G314A	0.86
V3 loop peptide V3_(HxBc2) R311A	1.4
V3 loop peptide V3_(HxBc2) N325A	1.3
V3 loop peptide V3_(HxBc2) G312A	0.82
V3 loop peptide V3_(HxBc2) T319A	0.63
V3 loop peptide V3_(HxBc2) V318A	0.41
V3 loop peptide V3_(HxBc2) R306A	0.78
V3 loop peptide V3_(HxBc2) G321A	0.7
V3 loop peptide V3_(HxBc2) I323A	0.53
V3 loop peptide V3_(HxBc2) K322A	2.1
V3 loop peptide V3_(HxBc2) R308A	0.57
V3 loop peptide V3_(HxBc2) Q310A	1
V3 loop peptide V3_(HxBc2) M326A	1.3
V3 loop peptide V3_(HxBc2) I320A	0.16
V3 loop peptide V3_(HxBc2) P313A	0.67

target: CXCR4 mimetic peptide CX4-M1; assay: SPR; Biacore X100, Biotin CAPture Kit; CX4-M1 (2 μM) bound to streptavidin; V3 loop peptides 5–0.3 μM; HBS-N (10 mM HEPES, 150 mM NaCl, pH 7.4), 0.05% Tween 20, 100 mM MgCl2; no sCD4; settings: not given

Substance	Kd
V3 loop peptide V3_(HxBc2)	300 nM
